The data set deals with CCC(=O)C(CC(C)N(C)C)(c1ccccc1)c1ccccc1. Nature of the data set: purified protein, by the assay type. The note with it: other: 50 nM Pgp in liposomes; curve fit.

By Km is commonly meant the concentration of substrate that gives half-maximal velocity. For the substance mouse Pgp (Abcb1a, MDR3) (Mus musculus), the Km was 28 ± 10 µM.

The values above are taken from PMC11027885, “Utilizing surface plasmon resonance as a novel method for monitoring in-vitro P-glycoprotein efflux” (Frontiers in biophysics, 2024).
